# Test results taken from the supplement of paper PMC10567573.
# B1: KLHL14 (parent)
# chain: NETGYLSSVECYNLETNEWRYVSS
# Variants of: B1
# Test: protein stability index of a GFP-peptide fusion (GPS, HEK-293T) (PSI 1-6); higher = more stable
# Conditions: c terminus: a fixed tail appended
# 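Note: lentivirally expressed fusions sorted by FACS into six bins by GFP to DsRed ratio, PSI derived from sequencing read proportions per bin multiplied by bin number.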
row,Variant,protein stability index
1,NETGYLSSVECYNLETWEWRYVSS [N17W],2.25
2,NETGYLSSVECYNLETTEWRYVSS [N17T],3.01
3,NETGYLSSVECYNLETEEWRYVSS [N17E],4.2
4,NETGYLSSVECYNLETAEWRYVSS [N17A],2.92
5,NETGYLSSVECYNLQTNEWRYVSS [E15Q],2.58
6,NETGYLSSVECYNLRTNEWRYVSS [E15R],2.39
7,NEKGYLSSVECYNLETNEWRYVSS [T3K],2.67
8,NESGYLSSVECYNLETNEWRYVSS [T3S],3.4
9,NENGYLSSVECYNLETNEWRYVSS [T3N],3.78
10,NEGGYLSSVECYNLETNEWRYVSS [T3G],3.01
11,NETGYLSSVECYNLETNEWRYVKS [S23K],3.27
12,NETGYLSSVECYNLETNEWRYVTS [S23T],3.38
13,NETGYLSSVECYNLETNEWRYVNS [S23N],3.98
14,NETGYLSSVECYNLETNEWRYLSS [V22L],2.81
15,NETGYLSSVECYNLETNEWRYQSS [V22Q],3.73
16,NETGYLSSVECYNLETNEWRYASS [V22A],3.42
17,NETGYLSSVEKYNLETNEWRYVSS [C11K],3.58
18,NETGYLSSVEPYNLETNEWRYVSS [C11P],3.92
19,NETGYLSSVERYNLETNEWRYVSS [C11R],3.73
20,NETGYLSSVECYNLETNEQRYVSS [W19Q],4.31
21,NETGYLSSVECYNLETNETRYVSS [W19T],4.99
22,NETGYLSSVECYNLETNEDRYVSS [W19D],4.83
23,NETGYLSSVECYNLETNEMRYVSS [W19M],4.36
24,NETGYLSSVECYNLETNEHRYVSS [W19H],4.77

row,Variant,protein stability index
1,NETGYDSSVECYNLETNEWRYVSS [L6D],3.78
2,NETGYHSSVECYNLETNEWRYVSS [L6H],4.23
3,NETGYASSVECYNLETNEWRYVSS [L6A],3.63
4,NETGYYSSVECYNLETNEWRYVSS [L6Y],2.86
5,NETGYFSSVECYNLETNEWRYVSS [L6F],2.87
6,NETWYLSSVECYNLETNEWRYVSS [G4W],1.68
7,NETSYLSSVECYNLETNEWRYVSS [G4S],3.22
8,NETQYLSSVECYNLETNEWRYVSS [G4Q],3.77
9,NETEYLSSVECYNLETNEWRYVSS [G4E],3.56
10,NETKYLSSVECYNLETNEWRYVSS [G4K],3.56
11,NETLYLSSVECYNLETNEWRYVSS [G4L],2.67
12,NETGYLSSVECYNLETNEWRYVSQ [S24Q],3.6
13,NETGYLSSVECYNLETNEWRYVSI [S24I],3.02
14,NETGYLSSVECYNLETNEWRYVSP [S24P],4.2
15,NETGYLSSVECYNLETNEWRYVSF [S24F],3.94
16,NETGYLSSVECYNLETNEWRYVSH [S24H],3.82
17,NETGYLSSVECYNLETNMWRYVSS [E18M],2.92
18,NETGYLSSVECYNLETNIWRYVSS [E18I],2.68
19,NETGYLSSVECYNLETNTWRYVSS [E18T],3.22
20,NETGYLSSVECYNLETNVWRYVSS [E18V],2.62
21,NETGYLSSVECYNLETNDWRYVSS [E18D],3.72
22,NETGYLSSVECYNLETNFWRYVSS [E18F],3.41
23,NETGYLSSVECYNLETNYWRYVSS [E18Y],2.57
24,NITGYLSSVECYNLETNEWRYVSS [E2I],2.37

row,Variant,protein stability index
1,CETGYLSSVECYNLETNEWRYVSS [N1C],2.41
2,QETGYLSSVECYNLETNEWRYVSS [N1Q],3.31
3,SETGYLSSVECYNLETNEWRYVSS [N1S],3.69
4,AETGYLSSVECYNLETNEWRYVSS [N1A],3.05
5,DETGYLSSVECYNLETNEWRYVSS [N1D],3.23
6,IETGYLSSVECYNLETNEWRYVSS [N1I],2.43
7,NETGYLASVECYNLETNEWRYVSS [S7A],3.42
8,NETGYLNSVECYNLETNEWRYVSS [S7N],3.89
9,NETGYLLSVECYNLETNEWRYVSS [S7L],2.24
10,NETGYLDSVECYNLETNEWRYVSS [S7D],3.89
11,NETGYLFSVECYNLETNEWRYVSS [S7F],1.64
12,NETGYLMSVECYNLETNEWRYVSS [S7M],2.48
13,NETGMLSSVECYNLETNEWRYVSS [Y5M],3.64
14,NETGFLSSVECYNLETNEWRYVSS [Y5F],3.71
15,NETGYLSSVECRNLETNEWRYVSS [Y12R],3.72
16,NETGYLSSVECYNLETNEWLYVSS [R20L],1.88
17,NETGYLSSVECYNLETNEWCYVSS [R20C],2.43
18,NETGYLSSVECYNLETNEWHYVSS [R20H],2.83
19,NETGYLSSAECYNLETNEWRYVSS [V9A],4.07
20,NETGYLSSSECYNLETNEWRYVSS [V9S],3.87
21,NETGYLSGVECYNLETNEWRYVSS [S8G],3.76
22,NETGYLSRVECYNLETNEWRYVSS [S8R],2.35
23,NETGYLSMVECYNLETNEWRYVSS [S8M],2.73
24,NETGYLSNVECYNLETNEWRYVSS [S8N],4.16

row,Variant,protein stability index
1,NETGYLSEVECYNLETNEWRYVSS [S8E],4.43
2,NETGYLSYVECYNLETNEWRYVSS [S8Y],1.67
3,NETGYLSPVECYNLETNEWRYVSS [S8P],4.21
4,NETGYLSVVECYNLETNEWRYVSS [S8V],2.77
5,NETGYLSSVICYNLETNEWRYVSS [E10I],1.69
6,NETGYLSSVHCYNLETNEWRYVSS [E10H],2.22
7,NETGYLSSVACYNLETNEWRYVSS [E10A],2.72
8,NETGYLSSVMCYNLETNEWRYVSS [E10M],1.86
9,NETGYLSSVECYNLETNEWRDVSS [Y21D],4
10,NETGYLSSVECYNLETNEWRLVSS [Y21L],3.1
11,NETGYLSSVECYNLETNEWRCVSS [Y21C],3.57
12,NETGYLSSVECYNLETNEWRTVSS [Y21T],3.93
13,NETGYLSSVECYNLETNEWRAVSS [Y21A],3.79
14,NETGYLSSVECYKLETNEWRYVSS [N13K],2.56
15,NETGYLSSVECYGLETNEWRYVSS [N13G],2.67
16,NETGYLSSVECYDLETNEWRYVSS [N13D],3.83
17,NETGYLSSVECYNFETNEWRYVSS [L14F],3.38
18,NETGYLSSVECYNLEKNEWRYVSS [T16K],2.96
19,NETGYLSSVECYNLESNEWRYVSS [T16S],3.8
20,NETGYLSSVECYNLEVNEWRYVSS [T16V],3
21,NETGYLSSVECYNLECNEWRYVSS [T16C],3.58
22,NETGYLSSVECYNLERNEWRYVSS [T16R],3.17
